The source of these data is paper PMC8800519 (Journal of Molecular Cell Biology, 2021).

The experiment addresses recombinant mouse α1C/β2A tubulin heterodimer (mouse, UniProt P68373;Q7TMM9). Description: single-molecule TIRF microscopy.

recombinant mouse α1C/β2A tubulin heterodimer, sequence (P68373 whole entry, one chain of several): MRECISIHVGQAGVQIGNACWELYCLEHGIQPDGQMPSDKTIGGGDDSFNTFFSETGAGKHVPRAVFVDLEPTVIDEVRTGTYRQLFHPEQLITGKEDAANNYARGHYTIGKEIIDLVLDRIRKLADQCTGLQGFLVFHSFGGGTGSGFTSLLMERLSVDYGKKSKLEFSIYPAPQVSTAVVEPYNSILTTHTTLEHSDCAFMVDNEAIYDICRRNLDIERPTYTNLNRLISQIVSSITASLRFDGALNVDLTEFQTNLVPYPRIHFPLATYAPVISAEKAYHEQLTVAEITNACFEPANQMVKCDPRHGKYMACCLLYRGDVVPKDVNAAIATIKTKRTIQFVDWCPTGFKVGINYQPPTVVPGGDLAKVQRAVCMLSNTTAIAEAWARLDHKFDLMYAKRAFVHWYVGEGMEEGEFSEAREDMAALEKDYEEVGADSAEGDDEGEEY

B1: EB1-GFP (full-length human EB1 with a GFP tag) (natural protein)
chain: MAVNVYSTSVTSDNLSRHDMLAWINESLQLNLTKIEQLCSGAAYCQFMDMLFPGSIALKKVKFQAKLEHEYIQNFKILQAGFKRMGVDKIIPVDKLVKGKFQDNFEFVQWFKKFFDANYDGKDYDPVAARQGQETAVAPSLVAPALNKPKKPLTSSSAAPQRPISTQRTAAAPKAGPGVVRKNPGVGNGDDEAAELMQQVNVLKLTVEDLEKERDFYFGKLRNIELICQENEGENDPVLQRIVDILYATDEGFVIPDEGGPQEEQEEY
As to B1, the binding result is “binds”.
